Measurements from PMC10811340.

Legend:
[1] = molecular target: Milano Short Tail Fiber (STF), gp31 (Agrobacterium tumefaciens bacteriophage Milano); assay: cryo-EM structure; baseplate junction of purified native Milano virions in the extended state, single particle analysis with C3 symmetry, ~3.2 Å; distal parts of the receptor-binding proteins and the garland only rigid-body fitted with AlphaFold models
[2] = molecular target: Milano Tail Spike Protein (TSP), gp124 (Agrobacterium tumefaciens bacteriophage Milano); assay: as above
[3] = molecular target: Milano tail tube protein, gp21 (Agrobacterium tumefaciens bacteriophage Milano); assay: cryo-EM structure; extended (pre-attachment) tail of purified native Milano virions; curved tail segments reconstructed with no imposed symmetry; the straight baseplate-proximal segment was extracted from the baseplate junction structure

## Milano Short Tail Fiber (STF), gp31 (natural protein)
[1]
  stoichiometry N: 3

## Milano Tail Spike Protein (TSP), gp124 (natural protein)
[2]
  stoichiometry N: 3

## Milano tail tube protein, gp21 (natural protein)
[3]
  stoichiometry N: 6
